From US20250163117A1 (CURE GENETICS, published 2025) come the findings set out here.

What all share (assay): cell-based or functional assay
Assay [1] deals with T1, human intermediate-affinity IL-2 receptor IL-2Rβγ on cells (human, UniProt P14784 27-551; P31785 23-369).
T1 sequence (looked up) 1: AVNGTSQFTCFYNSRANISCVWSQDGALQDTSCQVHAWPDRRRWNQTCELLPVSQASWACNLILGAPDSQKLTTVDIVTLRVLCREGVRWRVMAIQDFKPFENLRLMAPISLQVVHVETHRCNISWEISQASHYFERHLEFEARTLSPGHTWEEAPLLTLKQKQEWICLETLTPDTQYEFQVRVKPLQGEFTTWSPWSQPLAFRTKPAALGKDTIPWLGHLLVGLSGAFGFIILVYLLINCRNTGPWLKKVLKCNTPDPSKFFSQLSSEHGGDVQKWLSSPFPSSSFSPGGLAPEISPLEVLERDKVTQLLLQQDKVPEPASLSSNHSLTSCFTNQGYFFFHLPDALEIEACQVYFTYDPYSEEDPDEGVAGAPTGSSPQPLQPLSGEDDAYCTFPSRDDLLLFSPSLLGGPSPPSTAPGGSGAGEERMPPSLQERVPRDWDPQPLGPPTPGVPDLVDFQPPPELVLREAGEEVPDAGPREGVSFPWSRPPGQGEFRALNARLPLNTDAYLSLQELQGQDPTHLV
T1 sequence (looked up) 2: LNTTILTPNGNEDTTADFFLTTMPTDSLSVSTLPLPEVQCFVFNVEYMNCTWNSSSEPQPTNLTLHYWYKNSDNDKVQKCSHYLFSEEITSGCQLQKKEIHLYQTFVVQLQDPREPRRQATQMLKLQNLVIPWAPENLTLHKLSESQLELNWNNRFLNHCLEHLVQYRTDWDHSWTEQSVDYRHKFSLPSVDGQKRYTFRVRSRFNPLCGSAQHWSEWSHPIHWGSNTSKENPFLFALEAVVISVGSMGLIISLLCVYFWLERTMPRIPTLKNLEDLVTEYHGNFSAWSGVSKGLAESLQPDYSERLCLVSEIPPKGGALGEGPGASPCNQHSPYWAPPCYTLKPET

Assay [2] deals with T1, human intermediate-affinity IL-2 …. The source holds these as a separate data set.
Assay [3] deals with T2, human high-affinity IL-2 receptor IL-2Rαβγ on cells (human, UniProt P01589 22-272; P14784 27-551; P31785 23-369).
T2 sequence (looked up) 1: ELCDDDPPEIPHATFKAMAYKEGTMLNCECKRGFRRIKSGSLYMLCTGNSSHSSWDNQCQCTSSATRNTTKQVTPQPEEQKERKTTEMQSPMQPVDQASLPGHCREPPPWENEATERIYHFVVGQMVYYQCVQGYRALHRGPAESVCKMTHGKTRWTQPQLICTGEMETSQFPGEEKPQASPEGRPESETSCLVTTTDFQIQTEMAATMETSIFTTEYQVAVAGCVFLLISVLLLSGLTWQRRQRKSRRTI
T2 sequence (looked up) 2: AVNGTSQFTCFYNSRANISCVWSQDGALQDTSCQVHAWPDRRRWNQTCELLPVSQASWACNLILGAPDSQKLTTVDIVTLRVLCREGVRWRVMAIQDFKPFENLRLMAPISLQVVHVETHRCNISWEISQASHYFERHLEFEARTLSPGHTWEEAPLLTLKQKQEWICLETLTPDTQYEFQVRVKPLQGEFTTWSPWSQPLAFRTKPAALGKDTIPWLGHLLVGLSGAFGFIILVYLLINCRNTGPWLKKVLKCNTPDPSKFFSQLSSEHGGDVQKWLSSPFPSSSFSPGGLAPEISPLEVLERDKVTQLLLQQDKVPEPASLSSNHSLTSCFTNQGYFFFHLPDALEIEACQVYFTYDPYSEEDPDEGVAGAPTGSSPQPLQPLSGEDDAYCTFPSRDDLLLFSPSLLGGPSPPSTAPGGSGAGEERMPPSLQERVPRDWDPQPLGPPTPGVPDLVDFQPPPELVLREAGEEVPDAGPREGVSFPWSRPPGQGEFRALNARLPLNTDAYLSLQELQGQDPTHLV
T2 sequence (looked up) 3: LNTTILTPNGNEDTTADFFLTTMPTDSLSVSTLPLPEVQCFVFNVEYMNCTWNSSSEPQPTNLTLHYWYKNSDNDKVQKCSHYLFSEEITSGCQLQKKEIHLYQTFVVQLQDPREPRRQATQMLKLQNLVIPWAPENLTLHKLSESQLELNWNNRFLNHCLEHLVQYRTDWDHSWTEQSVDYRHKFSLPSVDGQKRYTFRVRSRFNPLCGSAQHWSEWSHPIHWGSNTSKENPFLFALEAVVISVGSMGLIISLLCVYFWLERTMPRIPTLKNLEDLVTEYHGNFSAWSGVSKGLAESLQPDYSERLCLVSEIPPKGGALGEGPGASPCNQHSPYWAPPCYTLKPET

Assay [4] concerns the target T3, mouse high-affinity IL-2 receptor IL-2Rαβγ on cells (mouse, UniProt P01590 22-268; P16297 27-539; P34902 23-369).
T3 sequence (looked up) 1: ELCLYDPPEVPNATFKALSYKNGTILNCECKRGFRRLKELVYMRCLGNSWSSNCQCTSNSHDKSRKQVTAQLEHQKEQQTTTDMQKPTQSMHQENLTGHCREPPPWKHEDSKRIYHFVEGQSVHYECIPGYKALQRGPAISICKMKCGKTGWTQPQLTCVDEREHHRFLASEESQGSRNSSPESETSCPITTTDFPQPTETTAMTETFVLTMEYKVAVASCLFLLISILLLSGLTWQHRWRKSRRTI
T3 sequence (looked up) 2: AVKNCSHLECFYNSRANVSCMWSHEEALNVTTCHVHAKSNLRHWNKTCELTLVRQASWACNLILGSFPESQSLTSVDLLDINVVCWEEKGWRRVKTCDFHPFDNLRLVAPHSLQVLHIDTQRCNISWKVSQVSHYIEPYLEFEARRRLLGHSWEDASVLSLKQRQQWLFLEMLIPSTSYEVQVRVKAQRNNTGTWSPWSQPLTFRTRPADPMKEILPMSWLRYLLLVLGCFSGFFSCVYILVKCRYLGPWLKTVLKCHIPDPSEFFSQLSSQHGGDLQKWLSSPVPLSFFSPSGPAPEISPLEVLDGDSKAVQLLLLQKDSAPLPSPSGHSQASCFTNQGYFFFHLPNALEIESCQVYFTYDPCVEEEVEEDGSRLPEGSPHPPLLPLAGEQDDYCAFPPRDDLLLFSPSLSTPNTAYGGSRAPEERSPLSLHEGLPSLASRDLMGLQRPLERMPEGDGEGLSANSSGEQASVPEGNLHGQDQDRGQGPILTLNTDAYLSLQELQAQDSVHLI
T3 sequence (looked up) 3: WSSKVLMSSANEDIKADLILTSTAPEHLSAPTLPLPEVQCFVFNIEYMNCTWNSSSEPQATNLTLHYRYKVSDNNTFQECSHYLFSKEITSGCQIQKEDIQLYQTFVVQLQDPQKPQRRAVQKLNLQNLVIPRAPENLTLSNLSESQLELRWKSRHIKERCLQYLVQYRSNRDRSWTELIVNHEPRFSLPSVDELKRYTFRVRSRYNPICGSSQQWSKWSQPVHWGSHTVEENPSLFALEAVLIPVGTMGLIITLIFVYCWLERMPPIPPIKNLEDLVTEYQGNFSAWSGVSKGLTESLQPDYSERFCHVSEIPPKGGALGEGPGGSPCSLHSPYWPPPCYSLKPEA

Assay [5] has as its target T4, mouse intermediate-affinity IL-2 receptor IL-2Rβγ on cells (mouse, UniProt P16297 27-539; P34902 23-369).
T4 sequence (looked up) 1: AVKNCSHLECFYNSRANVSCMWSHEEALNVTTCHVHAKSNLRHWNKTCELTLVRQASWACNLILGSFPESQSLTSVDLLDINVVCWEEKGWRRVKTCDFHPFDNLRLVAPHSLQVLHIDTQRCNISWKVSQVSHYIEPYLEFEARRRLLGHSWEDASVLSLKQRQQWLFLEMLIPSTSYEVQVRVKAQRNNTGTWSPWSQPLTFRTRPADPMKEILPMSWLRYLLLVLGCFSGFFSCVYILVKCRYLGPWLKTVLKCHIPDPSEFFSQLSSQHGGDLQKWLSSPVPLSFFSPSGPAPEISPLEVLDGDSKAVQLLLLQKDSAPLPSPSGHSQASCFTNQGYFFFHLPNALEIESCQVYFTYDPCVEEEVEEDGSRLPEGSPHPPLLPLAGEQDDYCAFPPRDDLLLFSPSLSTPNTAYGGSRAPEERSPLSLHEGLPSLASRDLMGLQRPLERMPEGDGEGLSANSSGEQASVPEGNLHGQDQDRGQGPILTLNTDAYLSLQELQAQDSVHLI
T4 sequence (looked up) 2: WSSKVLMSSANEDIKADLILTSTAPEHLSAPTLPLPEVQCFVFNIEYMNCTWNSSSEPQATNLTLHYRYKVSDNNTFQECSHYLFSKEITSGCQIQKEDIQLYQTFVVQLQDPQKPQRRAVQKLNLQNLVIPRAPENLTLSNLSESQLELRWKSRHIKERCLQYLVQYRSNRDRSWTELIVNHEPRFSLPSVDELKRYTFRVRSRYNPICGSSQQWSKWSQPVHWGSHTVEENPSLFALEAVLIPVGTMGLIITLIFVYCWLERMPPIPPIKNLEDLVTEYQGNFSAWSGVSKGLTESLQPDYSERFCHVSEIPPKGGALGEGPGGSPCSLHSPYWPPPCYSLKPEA

B1: CP-trIL-2 012 (ligand)
chain: PTSSSTKKTQLQLEHLLLDLQMILNGINNYKNPLRPRDLISNINVIVLELKGSETTELKHLQSLEEELKDLEEVLNLAQSKNFHTIVEFLNRWITFSQSIISTLT
notes: H1-H3-H2-H4; loops 1 and 2 removed; de-Ala1, C58S, C125S, P65D
In the case of B1, the “EC50 (read off the curve): STAT5 phosphorylation in HH cells” value in assay [1] was roughly 6 nM. In assay [2], the “% pSTAT5 in human PBMC at High IL-2v concentration (25 nM per paragraph 254); western blot, pSTAT5/STAT5 normalised to 001 High” value stood at 66.9%. Besides, the “% pSTAT5 in human PBMC at Low IL-2v concentration (2.5 nM per paragraph 254); western blot, pSTAT5/STAT5 normalised to 001 High” value in assay [3] amounted to 10.9%. For the same molecule, the “% pSTAT5 in mouse splenocytes at Low IL-2v concentration (2.5 nM per paragraph 254); western blot, pSTAT5/STAT5 normalised to 001 High” value in assay [4] stood at 22.8%. Further, in assay [5], the “% pSTAT5 in mouse splenocytes at High IL-2v concentration (25 nM per paragraph 254); western blot, pSTAT5/STAT5 normalised to 001 High” value is 126%.
